# Results reported in paper PMC9072312, “Candida albicans evades NK cell elimination via binding of Agglutinin-Like Sequence proteins to the checkpoint receptor TIGIT” (Nature Communications, 2022).
# B1: TIGIT-Ig (extracellular ligand-binding domain of human TIGIT fused to the Fc domain of human IgG1) (Fc fusion)
# chain: MMTGTIETTGNISAEKGGSIILQCHLSSTTAQVTQVNWEQQDQLLAICNADLGWHISPSFKDRVAPGPGLGLTLQSLTVNDTGEYFCIYHTYPDGTYTGRIFLEVLESSVAEHGARFQIP
# modifications: fluorescently labeled with the Monolith NT Protein Labeling Kit RED-NHS
# notes: also called human TIGIT-Ig; T cell immunoreceptor with Ig and ITIM domains; source: HEK293T, transfected (pIRESpuro3), secreted, purified (HiTrap Protein G HP)
# Target: T1, PVR-Ig (extracellular portion of human PVR fused to the Fc domain of human IgG1) (human, UniProt P15151 21-343)
# T1 construct: PVR (poliovirus receptor), human ligand of TIGIT, extracellular portion; source: HEK293T, transfected (pIRESpuro3), secreted, purified (HiTrap Protein G HP)
# T1 sequence: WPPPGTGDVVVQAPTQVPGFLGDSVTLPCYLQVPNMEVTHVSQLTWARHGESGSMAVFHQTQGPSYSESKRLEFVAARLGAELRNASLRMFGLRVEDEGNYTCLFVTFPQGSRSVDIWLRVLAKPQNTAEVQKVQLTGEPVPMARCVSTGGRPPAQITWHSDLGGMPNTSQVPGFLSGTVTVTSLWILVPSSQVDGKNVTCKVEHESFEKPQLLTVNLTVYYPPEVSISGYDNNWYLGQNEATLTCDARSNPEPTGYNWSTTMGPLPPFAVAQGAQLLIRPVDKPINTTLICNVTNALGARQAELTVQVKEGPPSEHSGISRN
# Test: MST; RED-NHS labeled TIGIT-Ig at constant level, unlabeled Ig-fusion proteins serially diluted in 1x PBS; Monolith NT.115, 20% MST power, 95% LED power, standard capillaries, 25 °C
# Conditions: both partners purified
binder,measurement,value
B1,binding result,binds
